Measurements taken from publication PMC12246617, “Cryo-EM structures reveal the PP2A–B55α and Eya3 interaction that can be disrupted by a peptide inhibitor” (The Journal of Biological Chemistry, 2025).

T1: His-hB55 (human PP2A regulatory subunit B55α), P63151
T1 chain: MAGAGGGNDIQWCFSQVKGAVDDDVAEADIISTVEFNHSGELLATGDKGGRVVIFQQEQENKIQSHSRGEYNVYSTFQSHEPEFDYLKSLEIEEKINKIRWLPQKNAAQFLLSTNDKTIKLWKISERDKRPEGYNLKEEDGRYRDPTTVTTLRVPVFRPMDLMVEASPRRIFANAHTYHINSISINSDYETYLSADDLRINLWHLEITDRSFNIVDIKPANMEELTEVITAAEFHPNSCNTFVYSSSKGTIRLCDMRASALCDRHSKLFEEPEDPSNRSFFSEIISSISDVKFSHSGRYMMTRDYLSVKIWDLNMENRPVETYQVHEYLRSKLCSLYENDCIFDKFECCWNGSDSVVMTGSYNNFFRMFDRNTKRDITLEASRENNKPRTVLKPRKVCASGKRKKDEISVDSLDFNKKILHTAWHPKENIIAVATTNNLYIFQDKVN


Tests used:
[1] = molecular target: B55i peptide (computationally engineered inhibitory peptide of B55); test: fluorescence polarisation; His-B55 serially diluted in 50 mM Tris pH 8, 100 mM NaCl, 1 mM DTT, incubated with 3 nM FITC-B55i at room temperature for 10 min
[2] = molecular target: T1, His-hB55 (human PP2A regulatory subunit …); test: MST; details: chain shown with the change;

| Kd ([2]; parent: 1.04 µM) [µM] | Binder | other results |
| --- | --- | --- |
| – | His-hB55 (human PP2A regulatory subunit B55α) (natural protein) MAGAGGGNDIQWCFSQVKGAVDDDVAEADIISTVEFNHSGELLATGDKGGRVVIFQQEQENKIQSHSRGEYNVYSTFQSHEPEFDYLKSLEIEEKINKIRWLPQKNAAQFLLSTNDKTIKLWKISERDKRPEGYNLKEEDGRYRDPTTVTTLRVPVFRPMDLMVEASPRRIFANAHTYHINSISINSDYETYLSADDLRINLWHLEITDRSFNIVDIKPANMEELTEVITAAEFHPNSCNTFVYSSSKGTIRLCDMRASALCDRHSKLFEEPEDPSNRSFFSEIISSISDVKFSHSGRYMMTRDYLSVKIWDLNMENRPVETYQVHEYLRSKLCSLYENDCIFDKFECCWNGSDSVVMTGSYNNFFRMFDRNTKRDITLEASRENNKPRTVLKPRKVCASGKRKKDEISVDSLDFNKKILHTAWHPKENIIAVATTNNLYIFQDKVN | Kd [1]: 0.0673 µM |
| 4.87 | mouse Eya3 (mEya3), wild type, P97480 Y77A (protein) MEEEQDLPEQPVKKAKMQEPREQTLSQVNNPDASDEKPETSSLASNLSMSEEIMTCTDYIPRSSNDYTSQMYSAKPAAHILSVPVSETTYPGQTQYQTLQQSQPYAVYPQATQTYGLPPFASSTNASLIPTSSAIANIPAAAVASISNQDYPTYTILGQNQYQACYPSSSFGVTGQTNSDAETTTLAATTYQTEKPSAMVPAPATQRLPSDSSASPPLSQTTPNKDADDQARKNMTVKNRGKRKADASSSQDSELERVFLWDLDETIIIFHSLLTGSYAQKYGKDPTVVIGSGLTMEEMIFEVADTHLFFNDLEECDQVHVEDVASDDNGQDLSNYSFSTDGFSGSGGSGSHGSSVGVQGGVDWMRKLAFRYRKVREIYDKHKSNVGGLLSPQRKEALQRLRAEIEVLTDSWLGTALKSLLLIQSRKNCANVLITTTQLVPALAKVLLYGLGEIFPIENIYSATKIGKESCFERIVSRFGKKVTYVVIGDGRDEEIAAKQHNMPFWRITNHGDLVSLHQALELDFL | – |
| 4.24 | mouse Eya3 (mEya3), wild type, P97480 K75A (protein) MEEEQDLPEQPVKKAKMQEPREQTLSQVNNPDASDEKPETSSLASNLSMSEEIMTCTDYIPRSSNDYTSQMYSAAPYAHILSVPVSETTYPGQTQYQTLQQSQPYAVYPQATQTYGLPPFASSTNASLIPTSSAIANIPAAAVASISNQDYPTYTILGQNQYQACYPSSSFGVTGQTNSDAETTTLAATTYQTEKPSAMVPAPATQRLPSDSSASPPLSQTTPNKDADDQARKNMTVKNRGKRKADASSSQDSELERVFLWDLDETIIIFHSLLTGSYAQKYGKDPTVVIGSGLTMEEMIFEVADTHLFFNDLEECDQVHVEDVASDDNGQDLSNYSFSTDGFSGSGGSGSHGSSVGVQGGVDWMRKLAFRYRKVREIYDKHKSNVGGLLSPQRKEALQRLRAEIEVLTDSWLGTALKSLLLIQSRKNCANVLITTTQLVPALAKVLLYGLGEIFPIENIYSATKIGKESCFERIVSRFGKKVTYVVIGDGRDEEIAAKQHNMPFWRITNHGDLVSLHQALELDFL | – |
| – | mouse Eya3 (mEya3), wild type, P97480 H79A (protein) MEEEQDLPEQPVKKAKMQEPREQTLSQVNNPDASDEKPETSSLASNLSMSEEIMTCTDYIPRSSNDYTSQMYSAKPYAAILSVPVSETTYPGQTQYQTLQQSQPYAVYPQATQTYGLPPFASSTNASLIPTSSAIANIPAAAVASISNQDYPTYTILGQNQYQACYPSSSFGVTGQTNSDAETTTLAATTYQTEKPSAMVPAPATQRLPSDSSASPPLSQTTPNKDADDQARKNMTVKNRGKRKADASSSQDSELERVFLWDLDETIIIFHSLLTGSYAQKYGKDPTVVIGSGLTMEEMIFEVADTHLFFNDLEECDQVHVEDVASDDNGQDLSNYSFSTDGFSGSGGSGSHGSSVGVQGGVDWMRKLAFRYRKVREIYDKHKSNVGGLLSPQRKEALQRLRAEIEVLTDSWLGTALKSLLLIQSRKNCANVLITTTQLVPALAKVLLYGLGEIFPIENIYSATKIGKESCFERIVSRFGKKVTYVVIGDGRDEEIAAKQHNMPFWRITNHGDLVSLHQALELDFL | Kd ([2]; parent: 1.04): 9.16 µM |
